“And” between values parts separate entries of the source, which are not always exact repeats. Equal values may be shown once. “Also recorded” adds a separate entry of the source. No end group written: not given here.
How the values were obtained:
Caspase-1 = molecular target: T1, Caspase-1 (Homo sapiens, UniProt P29466); assay: activity of purified active p10/p20 Caspase-1 (direct effect); assay type: biochemical; conditions: active p10/p20 Caspase-1 5 nM; test protein/peptide at excess; Ac-WEHD-CHO 10 nM
T1 construct: fully active, proteolytically processed Caspase-1 comprised of p20 and p10 catalytic subunits purified from bacteria; made in house; host or cells: bacteria
T1 sequence (P29466 120-297 limits assumed): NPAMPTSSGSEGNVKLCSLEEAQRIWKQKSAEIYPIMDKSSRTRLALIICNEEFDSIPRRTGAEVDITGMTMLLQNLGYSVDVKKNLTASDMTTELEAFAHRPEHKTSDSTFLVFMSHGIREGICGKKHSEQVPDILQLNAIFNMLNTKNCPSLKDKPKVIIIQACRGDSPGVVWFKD
T1 sequence (P29466 317-404 limits assumed): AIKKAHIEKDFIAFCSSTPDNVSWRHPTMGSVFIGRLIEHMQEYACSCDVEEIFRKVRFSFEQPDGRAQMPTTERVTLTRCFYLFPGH
Procedure: (§1) FIGS. 16A-16E show Bcl-2 Loop peptide inhibits NLRP1. […] Asterisk indicates p<0.05. (B) Purified active p10/p20 Caspase-1 (5 nM) was incubated with or without Bcl-2 Loop peptide 35-83 or Ac-WEHD-CHO (10 nM). […] Asterisks indicate p<0.05.
Caspase activity measurements. […] Proteins were mixed in Caspase-1 buffer (100 mM HEPES, [pH 7.5], 10% Sucrose, 0.1% CHAPS, 1 mM Dithiothreitol) in a final volume of 10 μl in 96-well plates. Various activators were added (ATP, Mg^2+, MDP-LD), adjusting final volume with water. Samples were then incubated for 30 min at 37° C. and Caspase-1 activity was measured using 20 μM fluorometric substrate Ac-WEHD-AMC (Calbiochem). Release of AMC product was monitored continuously by spectrofluorometry in kinetic mode over 1 h at 25-27° C. Rates of catalysis were calculated using the initial slope and Caspase activity was expressed as the change in fluorescence over time derived from the linear phase of reactions. Data were analyzed using the PRISM Statistics software, employing an unpaired t test.
To exclude a direct effect of Bcl-2 and Bcl-XL on Caspase-1, as opposed to NLRP1, the effects of these anti-apoptotic proteins were tested on fully active, proteolytically processed Caspase-1 comprised of p20 and p10 catalytic subunits purified from bacteria (FIG. 11).

NLRP1ΔLRR = assay: Caspase-1 activation by NLRP1ΔLRR mutant; assay type: biochemical; conditions: peptide 50 nM; Ac-WEHD-CHO 10 nM; NLRP1ΔLRR 8.5 nM
Procedure: as §1
To characterize the sequence of the Bcl-2 loop responsible for inhibiting NLRP1, a series of overlapping 20′mer peptides corresponding to the 35-83 region were synthesized and tested their effects on NLRP1-mediated Caspase-1 activation. […] The effects of the full-loop peptide (35-83) and the active segment (71-90) were specific, as determined by experiments using a NLRP1 mutant lacking the LRRs. […] Finally, the concentration-dependence of NLRP1 inhibition by the 35-83 and 71-90 loop peptides were compared.

NLRP1 [1] = molecular target: T2, NLRP1 (Homo sapiens, UniProt Q9C000); assay: in vitro reconstituted NLRP1 inflammasome: Caspase-1 activity by hydrolysis of Ac-WEHD-AMC; assay type: biochemical; conditions: for IC50: synthetic Bcl-2 peptides, various amounts, sigmoidal fit, read-out: IC50 (concentration to inhibit NLRP1-induced Caspase-1 activity by 50%); for concentration-dependence of inhibition of NLRP1-induced Caspase-1 activity: various concentrations of protein or peptide, NLRP1 8.5 nM; for Km: GST-Bcl-2 or GST-Bcl-XL 2 nM, control without inhibitor 2.62±0.35 μM, read-out: Km of Caspase-1 for its substrate Ac-WEHD-AMC in presence of inhibitor; for reduction of affinity (Km) of Caspase-1 for Ac-WEHD-AMC compared to control: in presence of Bcl-2 or Bcl-XL; for Ki: recombinant GST-fusion protein, calculated from Km with/without 2 nM inhibitor, competitive inhibition equation, read-out: inhibitory constant (Ki) for suppression of NLRP1 (NLRP1-induced Caspase-1 activation); for mechanism of NLRP1 inhibition (Lineweaver-Burke analysis): x-axis intercept changed, y-axis intercept unchanged
T2 sequence (Q9C000 1-1473): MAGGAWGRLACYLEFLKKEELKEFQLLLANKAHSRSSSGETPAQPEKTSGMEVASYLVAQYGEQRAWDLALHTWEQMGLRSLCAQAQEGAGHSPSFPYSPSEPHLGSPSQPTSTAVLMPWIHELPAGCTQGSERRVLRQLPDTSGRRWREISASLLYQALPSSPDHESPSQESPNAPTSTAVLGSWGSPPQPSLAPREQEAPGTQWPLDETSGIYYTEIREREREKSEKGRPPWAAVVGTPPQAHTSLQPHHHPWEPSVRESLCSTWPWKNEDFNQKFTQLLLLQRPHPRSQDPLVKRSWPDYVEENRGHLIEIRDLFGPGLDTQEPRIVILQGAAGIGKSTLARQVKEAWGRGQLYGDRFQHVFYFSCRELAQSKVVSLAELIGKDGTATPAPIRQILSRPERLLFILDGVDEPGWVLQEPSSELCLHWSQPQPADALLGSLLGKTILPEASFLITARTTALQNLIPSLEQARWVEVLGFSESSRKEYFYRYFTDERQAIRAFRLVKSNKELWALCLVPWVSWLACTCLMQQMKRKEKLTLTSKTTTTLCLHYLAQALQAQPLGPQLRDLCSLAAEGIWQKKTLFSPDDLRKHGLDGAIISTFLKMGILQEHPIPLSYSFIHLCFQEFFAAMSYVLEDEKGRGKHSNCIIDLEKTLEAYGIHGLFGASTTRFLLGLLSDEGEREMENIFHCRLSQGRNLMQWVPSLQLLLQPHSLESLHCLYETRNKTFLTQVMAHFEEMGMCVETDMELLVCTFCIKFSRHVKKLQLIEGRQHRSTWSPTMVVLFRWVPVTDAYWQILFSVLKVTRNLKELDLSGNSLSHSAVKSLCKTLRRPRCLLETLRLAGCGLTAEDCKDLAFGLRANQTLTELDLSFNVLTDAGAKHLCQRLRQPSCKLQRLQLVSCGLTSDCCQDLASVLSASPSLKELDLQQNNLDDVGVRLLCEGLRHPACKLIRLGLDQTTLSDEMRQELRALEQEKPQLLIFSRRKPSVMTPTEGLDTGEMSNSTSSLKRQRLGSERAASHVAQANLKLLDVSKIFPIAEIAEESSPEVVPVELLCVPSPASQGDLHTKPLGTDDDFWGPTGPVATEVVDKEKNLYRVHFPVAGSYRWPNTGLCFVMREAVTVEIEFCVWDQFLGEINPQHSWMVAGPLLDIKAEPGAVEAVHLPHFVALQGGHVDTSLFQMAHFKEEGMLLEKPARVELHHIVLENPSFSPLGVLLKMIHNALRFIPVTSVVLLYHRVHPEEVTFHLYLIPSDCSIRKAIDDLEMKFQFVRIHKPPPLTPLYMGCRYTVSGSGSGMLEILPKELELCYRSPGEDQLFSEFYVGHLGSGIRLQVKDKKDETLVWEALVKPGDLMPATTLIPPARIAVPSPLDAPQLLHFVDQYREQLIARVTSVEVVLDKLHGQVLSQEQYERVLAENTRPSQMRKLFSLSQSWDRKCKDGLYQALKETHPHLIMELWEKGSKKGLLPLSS

NLRP1 [2] = molecular target: T2, NLRP1; assay: NLRP1 oligomerization induced by MDP and ATP, 2D native/SDS gel electrophoresis; assay type: biochemical; conditions: protein at excess (1/10 molar ratio)
Procedure: Electrophoresis. Samples were incubated with protein solubilizing solution (40 mM 6-aminocaproic acid, 20 mM Bis-tris) for 30 min at 4° C., mixed with loading buffer (1M 6-aminocaproic acid, 5% Serva blue G), and applied to acrylamide-bis gradient (4-20%) gels (Schagger et al., (1994) Anal Biochem 217, 220-30). Bands of gels corresponding to the entire lane were excised from top to the bottom, incubated 45 min at 25-27° C. in denaturating buffer (1% β-mercaptoethanol, 10% SDS), then washed twice in equilibrating buffer (50 mM Tris. 1% SDS). Bands from gels were set horizontally on a SDS-acrylamide gel, and proteins were separated by electrophoresis (second dimension), then stained with Sypro Ruby. Molecular weight markers included Thyroglobuline, Apoferritin, β-Amylase and BSA (Sigma).
Oligomerization of NLRP1 induced by MDP and ATP can be monitored using 2D gel-electrophoresis analysis, in which the first dimension is non-denaturing and thus preserves macromolecular complexes during electrophoresis and the second dimension contains SDS for subsequent identification of proteins based on their known molecular mass (Faustin, 2007). For these experiments, NLRP1 monomers were incubated with various proteins (GST, GST-Bcl-XL, His6-Bcl-XLΔLoop) at excess, then MDP and ATP were added to induce oligomerization (FIG. 15). […]

NLRP1 [3] = molecular target: T2, NLRP1; assay: FITC-ATP binding to NLRP1 by fluorescence polarization assay (FPA); conditions: protein 1 μM at excess; NLRP1 0.125 μM; FITC-ATP 10 nM; MDP-LD 1 μM
NLRP1 [4] = molecular target: T2, NLRP1; assay: NLRP1-mediated proteolytic processing of pro-Caspase-1 (anti-p10 immunoblot); assay type: biochemical; conditions: molar ratio NLRP1/protein 1/5

Row | Substance | direct effect on activity of fully active processed Caspase-1 (Caspase-1) | Caspase-1 activation by NLRP1ΔLRR (NLRP1ΔLRR) | IC50 (NLRP1 [1]) | concentration-dependence of inhibition of NLRP1-induced Caspase-1 activity (NLRP1 [1]) | oligomerization of NLRP1 induced by MDP/ATP (NLRP1 [2]) | reduction of FITC-ATP binding to NLRP1 (NLRP1 [3]) | Km (NLRP1 [1]) [µM] | reduction of affinity (Km) of Caspase-1 for Ac-WEHD-AMC compared to control (NLRP1 [1]) [fold] | Ki (NLRP1 [1]) | mechanism of NLRP1 inhibition (Lineweaver-Burke analysis) (NLRP1 [1]) | MDP/ATP-induced proteolytic processing of pro-Caspase-1 to cleaved p10 subunit (NLRP1 [4])
1 | acetyl-Tryptophanyl-Glutamyl-Histidinyl-Aspartyl-aldehyde (Ac-WEHD-aldehyde; SMILES CC(=O)N[C@@H](Cc1c[nH]c2ccccc12)C(=O)N[C@@H](CCC(=O)O)C(=O)N[C@@H](Cc1c[nH]cn1)C(=O)N[C@H](C=O)CC(=O)O) [Ac-WEHD-CHO, reference compound] | completely inhibited; also recorded: potently suppressed the activity of this protease | completely neutralized Caspase-1 activity | – | – | – | – | – | – | – | – | –
2 | VGAAPPGAAPAPGIFSSQPGHTPHPAASRDPVARTSPLQTPAAPGAAAG [Bcl-2 Loop 35-83] | did not directly inhibit Caspase-1 | neither the 35-83 nor the 71-90 loop peptides suppressed Caspase-1 activation by NLRP1ΔLRR | 11.4 nM and ~12 nM | reducing Caspaes-1 activity to background levels | – | – | – | – | – | – | –
3 | GST: control protein [reference compound] | – | – | – | – | not affected | negligible effects | – | – | – | – | –
4 | PLQTPAAPGAAAGPALSPVP [Bcl-2 71-90] | – | neither the 35-83 nor the 71-90 loop peptides suppressed Caspase-1 activation by NLRP1ΔLRR | 9.92 nM and ~10 nM | reducing Caspaes-1 activity to background levels | – | – | – | – | – | – | –
5 | Bcl-XL: anti-apoptotic protein; recombinant GST-fusion lacking C-terminal transmembrane domain | neither Bcl-2 nor Bcl-XL suppressed Caspase-1 activity | – | – | essentially complete inhibition | suppressed oligomerization of NLRP1 | ~60% | 6.05 ± 0.24 | 2 | ~10 nM and 10 nM | competitive inhibitors of NLRP1 | inhibited
6 | Bcl-2: anti-apoptotic protein; recombinant GST-fusion lacking C-terminal transmembrane domain (SEQ ID NO:3/4) | neither Bcl-2 nor Bcl-XL suppressed Caspase-1 activity | – | – | essentially complete inhibition | – | ~60% | 5.04 ± 0.5 | 2 | ~10 nM and 8.23 nM and 10 nM | competitive inhibitors of NLRP1 | inhibited
7 | YDNREIVMKYIHYKLSQRGYEW (Synthetic Bcl-2 Loop peptides) [Bcl-2 BH4 domain 9-30, control peptide, reference compound] | – | – | – | negligible activity | – | – | – | – | – | – | –
